Experiment [1] concerns the target T1, human CTLA-4 (Y166G and Y183G) expressed on CHO-K1.hCTLA-4 cells (human, UniProt P16410 36-223). Nature of the experiment: CELISA on CHO-K1.hCTLA-4 cells. The method, then: Binding of the humanized antibodies to hCTLA-4 was studied in CELISA format. CHO-K1.hCTLA-4 cells were seeded in culture medium (DMEM-F12 (Gibco) with 10% Fetal Bovine Serum (Hyclone) and Pen/Strep (Gibco)) in tissue culture plates and cultured at 37° C., 5% CO₂ and 95% humidity until they were confluent. Subsequently, culture medium was removed and cells were incubated for 1 hour at 37° C., 5% CO₂ and 95% humidity with purified hCTLA-4 antibodies (10 μg/ml and dilutions thereof). Next, cells were washed with PBS/0.05% Tween (PBST) and incubated for 1 hour at 37° C., 5% CO₂ and 95% humidity with goat-anti-human IgG-HRP (Southern Biotechnology) or goat-anti-mouse IgG-HRP (Southern Biotechnology). Subsequently, cells were washed 3 times with PBST and anti-hCTLA-4 immunoreactivity was visualized with TMB Stabilized Chromagen (Invitrogen). Reactions were stopped with 0.5 M H₂SO₄ and absorbances were read at 450 and 610 nm.
Target sequence in this assay (P16410 36-223 Y201G/Y218G limits assumed): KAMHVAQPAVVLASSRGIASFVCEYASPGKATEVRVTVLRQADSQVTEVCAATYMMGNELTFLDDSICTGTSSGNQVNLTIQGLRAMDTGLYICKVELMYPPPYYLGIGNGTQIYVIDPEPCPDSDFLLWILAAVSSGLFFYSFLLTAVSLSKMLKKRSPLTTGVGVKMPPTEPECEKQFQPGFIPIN

The target in experiment [2] is T1, human CTLA-4 (Y166G and Y183G) …. Nature of the experiment: CELISA on CHO-K1.hCTLA-4 cells (Example 6). How it is done: (§1) In short, CELISA for hCTLA-4 binding was performed on CHO-K1.hCTLA-4 cells. […] Once the cells were confluent culture medium was removed and cells were incubated for 1 hour with the hCTL4.27 antibodies and control antibodies (10 μg/ml and dilutions thereof) at 37° C., 5% CO₂ and 95% humidity. […] Cells were then washed with PBST followed by addition of Streptavidin-HRP conjugate on the cells, which was incubated for 1 hour at 37° C., 5% CO₂ and 95% humidity. […] Reactions were stopped with 0.5 M H₂SO₄ and absorbances were read at 450 and 610 nm. IC50 values represent the concentration at which half of the inhibition is observed.

For experiment [3] the target is unchanged. Nature of the experiment: CELISA, blockade of biotinylated hCD80/Fc binding to CHO-K1.hCTLA-4 cells. The method, then: CHO-K1.hCTLA-4 cells were seeded in tissue culture plates and incubated at 37° C., 5% CO₂ and 95% humidity in culture medium. Once the cells were confluent culture medium was removed and cells were incubated for 1 hour with the humanized hCTL4.27 antibody variants (10 μg/ml and dilutions thereof) at 37° C., 5% CO₂ and 95% humidity. […] Cells were then washed with PBST followed by addition of Streptavidin-HRP conjugate on the cells, which was incubated for 1 hour at 37° C., 5% CO₂ and 95% humidity. […] Reactions were stopped with 0.5 M H₂SO₄ and absorbances were read at 450 and 610 nm. […] IC50 values represent the concentration at which half of the inhibition is observed.
Target sequence in this assay (P16410 36-223 Y201G/Y218G limits assumed): as above

Experiment [4] shares this target. Nature of the experiment: CELISA, blockade of biotinylated hCD80/Fc binding to CHO-K1.hCTLA-4 cells (Example 6). The method, then: as §1
Experiment [5] has the same target. Nature of the experiment: CELISA, blockade of biotinylated hCD86/Fc binding to CHO-K1.hCTLA-4 cells (Example 6). How it is done:
as §1

In a further experiment the target is T2, human CTLA-4 (human, UniProt P16410 36-223).
T2 construct: Endogenous CTLA-4 of stimulated human CD3+ T cells (stained after fixation and permeabilization) and membrane CTLA-4 of the Jurkat reporter cells; also called hCTLA-4; CTLA-4 expressed on human CD3+ T cells
T2 sequence: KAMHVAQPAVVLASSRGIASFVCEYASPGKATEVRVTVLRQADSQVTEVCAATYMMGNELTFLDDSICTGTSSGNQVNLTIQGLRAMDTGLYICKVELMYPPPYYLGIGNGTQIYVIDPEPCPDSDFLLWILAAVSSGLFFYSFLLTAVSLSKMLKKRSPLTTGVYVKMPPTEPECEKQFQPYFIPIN
The experiment is described as follows: CELISA on CHO-K1 cells transiently transfected with human CTLA-4, panel Human. How it is done:
(§2) The cDNAs encoding these constructs (SEQ ID NO: 41 and 43, respectively) were synthesized and subcloned into the pCI-Neo vector (GeneArt). […] To this end CHO-K1 cells were transiently transfected, using Lipofectamine 2000 (Invitrogen), with the pCI-Neo vectors expressing human CTLA-4 (hCTLA-4), mouse CTLA-4 (mCTLA-4) (SEQ ID NO: 45), Hum-Mou-CTLA-4, and Mou-Hum-CTLA-4 respectively. The transfected cells were cultured at 37° C., 5% CO₂ and 95% humidity in medium (DMEM-F12 (Gibco) with 5% New Born Calf serum (Biowest) and Pen/Strep (Gibco)) until confluent. Subsequently, cells were trypsinized and seeded in tissue culture plates and cultured at 37° C., 5% CO₂ and 95% humidity in culture medium until confluent. Then, culture medium was removed and cells were incubated for 1 hour at 37° C., 5% CO₂ and 95% humidity with hCTLA-4 antibodies. Next, cells were washed with PBS/0.05% Tween (PBST) and incubated for 1 hour at 37° C., 5% CO₂ and 95% humidity with 1:2,000 goat-anti-human IgG-HRP (Jackson Immunoresearch). After that, cells were washed 3 times with PBST and anti-CTLA-4 immunoreactivity was visualized with TMB Stabilized Chromagen (Invitrogen).

The next experiment addresses T3, Hum-Mou-CTLA-4 (human/mouse chimera).
T3 construct: Human residues on strand 1, 2, 5 and 6 and mouse residues on strand 3, 4, 7 and 8; transiently expressed on CHO-K1 cells; also called human-mouse variant; human-mouse exchange mutant
T3 chain: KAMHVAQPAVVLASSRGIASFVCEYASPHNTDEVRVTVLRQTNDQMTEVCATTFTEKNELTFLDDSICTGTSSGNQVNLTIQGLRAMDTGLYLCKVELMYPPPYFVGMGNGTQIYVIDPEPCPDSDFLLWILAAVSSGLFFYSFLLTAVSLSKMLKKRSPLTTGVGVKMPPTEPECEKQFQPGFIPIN
The experiment is described as follows: CELISA on CHO-K1 cells transiently transfected with Hum-Mou-CTLA-4, panel Human/Mouse. The method, then:
as §2

The target in a further experiment is T4, Mou-Hum-CTLA-4 (mouse/human chimera).
T4 construct: Mouse residues on strand 1, 2, 5 and 6 and human residues on strand 3, 4, 7 and 8; transiently expressed on CHO-K1 cells; also called mouse-human variant; mouse-human exchange mutant
T4 chain: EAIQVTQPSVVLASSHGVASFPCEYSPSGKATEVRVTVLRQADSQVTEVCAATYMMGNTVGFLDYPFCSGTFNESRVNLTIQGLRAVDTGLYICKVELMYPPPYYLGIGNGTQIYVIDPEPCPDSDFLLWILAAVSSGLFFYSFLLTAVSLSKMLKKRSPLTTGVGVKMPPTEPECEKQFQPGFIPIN
The experiment is described as follows: CELISA on CHO-K1 cells transiently transfected with Mou-Hum-CTLA-4, panel Mouse/Human. How it is done: as §2

In a further experiment the target is T5, rhCTLA-4/Fc/6His (human).
T5 construct: Bought from R&D Systems
Nature of the experiment: BLI (Octet RED96), antibody amine-coupled to biosensor, rhCTLA-4/Fc 2.5-40 nM, 1:1 global fit. How it is done:
hCTLA4.27 binding kinetics and equilibrium binding constants were profiled using […] on the Octet RED96 and compared to several antibodies known in the art. […] Amine-reactive biosensors were pre-wet by immersing them in wells containing 0.1M MES pH=5.5 for 10 minutes. The biosensors were then activated using a 0.1M NHS/0.4M EDC mixture for 5 minutes. Antibodies were coupled by immersing the biosensors in a solution of 2.5 or 12 ug/mL antibody in 0.1M MES for 7.5 minutes. The biosensor surface was quenched using a solution of IM ethanolamine for 5 minutes. Biosensors were equilibrated in Octet kinetics buffer (ForteBio) for 5 minutes. Association of rhCTLA-4/Fc (R&D Systems) was observed by placing the biosensors in wells containing various rhCTLA-4/Fc concentrations (2.5-40 nM) and monitoring interferometry for 15 minutes. Dissociation was measured after transfer of the biosensors into kinetics buffer and monitoring of the interferometry signal for 45 minutes. The assay was run with a plate temperature of 30° C. The observed on and off rates (kon and kdis) were fit using a 1:1 binding global fit model comprising all concentrations tested, and the equilibrium binding constant KD was calculated.
(In general: BLI is a label-free optical method that tracks binding on a fibre tip over time.)

Experiment [6] concerns the target T1, human CTLA-4 (Y166G and Y183G) …. Nature of the experiment: CELISA, blockade of biotinylated hCD80/Fc binding to CHO-K1.hCTLA-4 cells (Example 6); blockade of hCD80/Fc binding to CHO-K1.hCTLA-4 cells. How it is done:
as §1

From patent US20180037654A1 (ADURO BIOTECH HOLDINGS EUROPE B V, published 2018) come the findings set out here.

T5 sequence (chain, as listed by the source limits assumed): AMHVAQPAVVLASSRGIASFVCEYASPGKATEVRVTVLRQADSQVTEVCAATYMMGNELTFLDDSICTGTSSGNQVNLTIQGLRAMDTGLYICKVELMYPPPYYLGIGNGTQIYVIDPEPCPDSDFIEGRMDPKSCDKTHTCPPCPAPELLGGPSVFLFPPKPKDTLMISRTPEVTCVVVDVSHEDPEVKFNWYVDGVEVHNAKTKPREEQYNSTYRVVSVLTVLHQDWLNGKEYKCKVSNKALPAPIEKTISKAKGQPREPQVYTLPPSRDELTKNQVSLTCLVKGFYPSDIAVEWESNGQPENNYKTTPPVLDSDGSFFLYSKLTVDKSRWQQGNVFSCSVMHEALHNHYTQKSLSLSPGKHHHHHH

B1: hCTLA4.27A.C4 (antibody, V domains shown)
VH: QVQLQQPGAVLVRPGVSVKLSCKASGYSFTTYWMNWVKQRPGQGLEWIGMIHPSDSETSLNQAFKDKATLTIDKSSSTAYMQLSSPTSEDSAVYFCARMGRRNPYYFDYWGQGTTLTVSS
VL: DIQMTQSPVSLSVSVGETVTITCRPSENLYTNLAWYQQKQGKSPQLLVYGATNLADGVPSRFSGSGSGTQYSLRINSLQSEDFGTYYCQHLWGTPFTFGSGTKLELK
notes: Chimeric: mouse variable domains on human IgG4, kappa; also called hCTLA4.27A chimeric hIgG4
As to B1, the half-maximal effective concentration (EC50) in [1] is 0.033 nM; in experiment [2], 0.053 nM. Moreover, the IC50 in experiment [3] worked out at 1.61 nM; in [4], 1.6 nM; in experiment [5], 1.21 nM. Further, the “EC50 (read off the curve)” value with human CTLA-4 was approximately 0.06 nM; with Hum-Mou-CTLA-4, approximately 0.08 nM. The binding result in the experiment with Mou-Hum-CTLA-4 is given as “no binding (tested: log nM about 1.8 (about 60 nM))”.

B2: hCTLA4.27A (antibody, V domains shown)
VH: B1 VH
VL: B1 VL
notes: also called mouse hCTLA4.27A; parental antibody
Regarding B2, the EC50 came to 0.048 nM in experiment [1] and 0.053 nM in experiment [2]. Besides, the IC50 in [3] was found to be 2.17 nM; in experiment [5], 2.17 nM; in [6], 2.71 nM. In the experiment with rhCTLA-4/Fc/6His, this molecule yielded a Kd of 2 nM. The molecule further had a koff with rhCTLA-4/Fc/6His of 0.00045 s⁻¹. This molecule had a kon with rhCTLA-4/Fc/6His of 500000 M⁻¹ s⁻¹.

By EC50 is commonly meant the midpoint of the concentration-response curve. A low value points to higher potency in that assay. As a reminder, the IC50 is the concentration that inhibits the measured activity by half. One may read the EC50 (read off the curve) as the midpoint of the concentration-response curve. A low value points to greater potency. What is called Kd is the constant that tells how readily two partners part at equilibrium. Read a low Kd as a tighter complex. By koff is commonly meant the first-order rate constant of dissociation. A higher koff goes with fast dissociation. For orientation: kon means the second-order rate constant of association.
